Where no end group is shown, it is not given here. [ ]: non-standard residue; d: D form. pS = N[C@@H](COP(=O)(O)O)C(=O)O
Tests used:
[1] = target: 14-3-3 protein (endogenous rice OsGF14; isoform not specified); assay: cell-based or functional assay
[2] = target: T1, OsGF14b (Os04g0462500), full-length, yeast two-hybrid fusion (rice, UniProt Q7XTE8 1-262); assay: yeast two-hybrid, growth on selective medium
T1 construct: not shown: two-hybrid fusion partner encoded by pBTM116-GW or pVP16-GW
T1 sequence: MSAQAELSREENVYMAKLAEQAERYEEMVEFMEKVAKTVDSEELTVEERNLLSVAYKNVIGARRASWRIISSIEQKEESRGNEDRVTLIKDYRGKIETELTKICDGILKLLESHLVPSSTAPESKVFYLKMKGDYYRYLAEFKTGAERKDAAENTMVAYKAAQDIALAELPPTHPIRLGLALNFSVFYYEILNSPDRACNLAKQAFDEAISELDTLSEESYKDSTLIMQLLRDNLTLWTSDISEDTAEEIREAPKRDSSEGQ
Experimental: (§1) For an interaction assay, pBTM116 and pVP16 were converted to pBTM116-GW and pVP16-GW, respectively, using a Gateway vector conversion system (Invitrogen) according to the manufacturer's instructions. Yeast cells were grown at 30° C. for 5 days using an SC medium (without uracil, tryptophan, leucine, and histidine), the medium containing added histidine or 1 to 10 mM 3-aminotriazole (+His or +3-AT). The concentration of 3-AT was determined by a bait-prey combination.
(§2) Various mutant proteins were produced by constructing plasmids as described below. […] The PCR-amplified fragments were cloned into a pENTR/D-TOPO cloning vector (Invitrogen) to obtain entry clones.

[3] = target: T2, OsGF14b mutant F206A, yeast two-hybrid fusion (rice, UniProt Q7XTE8 1-262); assay: yeast two-hybrid, growth on selective medium
T2 construct: not shown: yeast two-hybrid fusion partner encoded by pBTM116-GW or pVP16-GW, and its linker
T2 sequence: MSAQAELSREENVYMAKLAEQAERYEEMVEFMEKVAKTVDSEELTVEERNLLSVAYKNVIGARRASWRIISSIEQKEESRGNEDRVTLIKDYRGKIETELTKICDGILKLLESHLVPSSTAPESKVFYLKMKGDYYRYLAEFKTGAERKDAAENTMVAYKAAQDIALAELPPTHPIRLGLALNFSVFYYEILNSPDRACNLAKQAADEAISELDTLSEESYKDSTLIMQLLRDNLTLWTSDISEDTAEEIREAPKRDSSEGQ
Experimental: as §1, §2

[4] = target: T3, OsGF14b mutant I210A, yeast two-hybrid fusion (rice, UniProt Q7XTE8 1-262); assay: yeast two-hybrid, growth on selective medium
T3 construct: not shown: yeast two-hybrid fusion partner encoded by pBTM116-GW or pVP16-GW, and its linker
T3 sequence: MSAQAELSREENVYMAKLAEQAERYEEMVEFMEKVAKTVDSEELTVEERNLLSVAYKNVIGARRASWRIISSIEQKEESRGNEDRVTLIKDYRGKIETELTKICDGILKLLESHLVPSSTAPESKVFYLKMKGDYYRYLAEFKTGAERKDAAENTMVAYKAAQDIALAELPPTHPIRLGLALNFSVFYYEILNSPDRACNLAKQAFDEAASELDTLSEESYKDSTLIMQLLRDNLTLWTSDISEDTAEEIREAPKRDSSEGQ
Experimental: as §1, §2

[5] = target: T4, OsGF14b mutant E218A, yeast two-hybrid fusion (rice, UniProt Q7XTE8 1-262); assay: yeast two-hybrid, growth on selective medium
T4 construct: not shown: yeast two-hybrid fusion partner encoded by pBTM116-GW or pVP16-GW, and its linker
T4 sequence: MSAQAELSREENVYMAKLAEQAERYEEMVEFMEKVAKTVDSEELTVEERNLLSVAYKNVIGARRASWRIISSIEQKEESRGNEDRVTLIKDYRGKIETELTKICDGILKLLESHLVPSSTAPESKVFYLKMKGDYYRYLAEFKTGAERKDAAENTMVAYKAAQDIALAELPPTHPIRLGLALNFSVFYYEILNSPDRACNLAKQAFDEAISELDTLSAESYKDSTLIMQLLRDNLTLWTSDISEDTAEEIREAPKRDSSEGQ
Experimental: as §1, §2

[6] = target: T5, OsGF14b mutant Y221A, yeast two-hybrid fusion (rice, UniProt Q7XTE8 1-262); assay: yeast two-hybrid, growth on selective medium
T5 construct: not shown: two-hybrid fusion partner encoded by pBTM116-GW or pVP16-GW
T5 sequence: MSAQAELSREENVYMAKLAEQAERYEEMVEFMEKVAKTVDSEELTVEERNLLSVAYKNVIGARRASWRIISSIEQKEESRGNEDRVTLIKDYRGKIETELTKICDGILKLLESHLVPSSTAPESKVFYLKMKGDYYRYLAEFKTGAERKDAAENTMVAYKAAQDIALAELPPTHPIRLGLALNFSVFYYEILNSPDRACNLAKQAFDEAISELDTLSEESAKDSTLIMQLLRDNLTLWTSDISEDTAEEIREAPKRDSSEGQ
Experimental: as §1, §2

[7] = target: T6, OsGF14b mutant R232A, yeast two-hybrid fusion (rice, UniProt Q7XTE8 1-262); assay: yeast two-hybrid, growth on selective medium
T6 construct: not shown: two-hybrid fusion partner encoded by pBTM116-GW or pVP16-GW
T6 sequence: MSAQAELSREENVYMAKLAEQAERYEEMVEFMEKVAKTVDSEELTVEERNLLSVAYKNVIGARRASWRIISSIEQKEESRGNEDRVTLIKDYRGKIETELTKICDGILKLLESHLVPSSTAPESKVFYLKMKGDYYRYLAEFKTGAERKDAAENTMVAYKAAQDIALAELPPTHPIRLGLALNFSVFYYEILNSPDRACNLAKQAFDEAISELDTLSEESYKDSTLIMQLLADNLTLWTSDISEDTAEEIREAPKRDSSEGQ
Experimental: as §1, §2

[8] = target: T7, OsGF14b mutant D233A, yeast two-hybrid fusion (rice, UniProt Q7XTE8 1-262); assay: yeast two-hybrid, growth on selective medium
T7 construct: not shown: two-hybrid fusion partner encoded by pBTM116-GW or pVP16-GW
T7 sequence: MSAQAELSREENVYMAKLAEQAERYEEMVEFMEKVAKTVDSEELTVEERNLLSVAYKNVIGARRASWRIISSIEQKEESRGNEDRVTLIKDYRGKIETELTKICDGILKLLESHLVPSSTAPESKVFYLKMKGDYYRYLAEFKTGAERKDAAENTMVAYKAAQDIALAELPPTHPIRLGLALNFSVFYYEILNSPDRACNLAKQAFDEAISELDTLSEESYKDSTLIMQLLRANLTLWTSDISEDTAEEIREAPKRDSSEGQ
Experimental: as §1, §2

[9] = target: T8, GF14b, full-length, Vn- or Vc-tagged (BiFC) (rice, UniProt Q7XTE8 1-262); assay: BiFC (Venus) in rice Oc protoplasts
T8 construct: it is put first only for listing; also called OsGF14b; not shown: Vn or Vc fragment of Venus (BiFC tag), at the N- or C-terminal
T8 sequence: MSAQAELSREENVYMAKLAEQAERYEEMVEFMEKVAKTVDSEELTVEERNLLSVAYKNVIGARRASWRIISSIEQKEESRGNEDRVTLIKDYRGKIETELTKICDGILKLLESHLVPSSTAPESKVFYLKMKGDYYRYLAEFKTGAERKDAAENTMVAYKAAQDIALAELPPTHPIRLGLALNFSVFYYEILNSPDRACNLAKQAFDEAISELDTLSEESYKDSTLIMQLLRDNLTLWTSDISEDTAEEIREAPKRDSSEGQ
Experimental: (§3) (1) The transformation of rice Oc protoplasts was performed by a method described in Kyozuka and Shimamoto 1991, Plant J. 6, 271 (1994), Non Patent Literature 1, or the like. Fluorescent protein expression vectors having introduced therein various proteins were introduced into a protoplast suspension (2×10⁷ protoplasts/ml) by a PEG method (PEG-mediated method). After incubation at 30° C. for 24 hours, transformed protoplasts were obtained and used for microscopic observation.
(§4) Therefore, the number of cells showing higher values than the above-mentioned values was scored.

[10] = target: T9, Hd3a, full-length, Vn- or Vc-tagged (BiFC) (rice, UniProt Q93WI9 1-179); assay: BiFC (Venus) in rice Oc protoplasts (endogenous 14-3-3 proteins present)
T9 construct: it is put first only for listing; not shown: Vn or Vc fragment of Venus (BiFC tag), at the N- or C-terminal
Experimental: as §3, §4

[11] = target: T10, GST-fused Hd3a protein (full-length Hd3a) (rice, UniProt Q93WI9 1-179); assay: in vitro GST pull-down, GST-Hd3a on glutathione resin, SDS-PAGE
T10 construct: also called GST-Hd3a; not shown: GST (glutathione S-transferase) fusion partner
Experimental: After that, the resin was washed with a phosphate buffer (pH 6.8) containing 50 mM KCl and 1 mM DTT to remove a free GST-fused protein unbound to the resin. The isolated and purified GST protein bound to the resin was used as a negative control. […] After that, the resins were washed with a phosphate buffer (pH 6.8) containing 50 mM KCl and 1 mM DTT to remove a free GST-GF14c polypeptide unbound to the resins. Each of the bound proteins was eluted with a phosphate buffer (pH 6.8) containing 50 mM glutathione, 50 mM KCl, and 1 mM DTT and confirmed by SDS polyacrylamide electrophoresis.

[12] = target: T11, GF14c residues 1 to 235 (crystallization construct) (rice, UniProt Q6ZKC0 1-235); assay: X-ray crystal structure of the florigen activation complex; peptide soaked into Hd3a-GF14c crystals
T11 construct: Expressed in E. coli and purified; co-crystallized with Hd3a 6-170; also called 14-3-3 protein
T11 sequence: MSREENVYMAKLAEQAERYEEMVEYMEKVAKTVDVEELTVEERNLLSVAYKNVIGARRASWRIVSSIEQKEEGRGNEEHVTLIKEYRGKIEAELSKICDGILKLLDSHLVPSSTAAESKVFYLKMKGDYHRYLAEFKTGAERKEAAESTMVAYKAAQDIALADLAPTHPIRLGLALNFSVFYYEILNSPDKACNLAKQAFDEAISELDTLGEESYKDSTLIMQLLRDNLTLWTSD
Experimental: The crystallization of the complex was performed at 4° C. by a sitting drop method using a mixture of 1 μl of the protein solution (protein concentration: 10 mg/mL) and 1 μl of a precipitant solution (0.1 M HEPES (pH 7.5), 0.2 M ammonium sulfate, and 25% PEG 3350).

T10 sequence (Q93WI9 whole entry, the tested form may be a part): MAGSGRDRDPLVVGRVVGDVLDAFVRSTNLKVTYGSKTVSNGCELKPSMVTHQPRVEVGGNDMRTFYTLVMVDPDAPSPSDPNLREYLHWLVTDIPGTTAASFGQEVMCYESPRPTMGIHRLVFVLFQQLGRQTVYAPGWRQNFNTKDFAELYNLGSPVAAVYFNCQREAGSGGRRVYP
T9 sequence (Q93WI9 whole entry, the tested form may be a part): as above

## Hd3a(R64G)-GFP (prolC::Hd3a(R64G)::GFP) (from UniProt Q93WI9 1-179)
[1]
  Days to flowering (days) of transgenic rice: 44.2 days

## Hd3a(R64G/R132A)-GFP (prolC::Hd3a(R64G/R132A)::GFP) (from UniProt Q93WI9 1-179)
[1]
  Days to flowering (days) of transgenic rice: 58.8 days

## Hd3a-GFP-fused protein (full-length Hd3a coding region conjugated to GFP) (from UniProt Q93WI9 1-179)
[1]
  Days to flowering (days) of transgenic rice: 19.6 days

B1: OsFD1 (Os09g0540800), full-length, yeast two-hybrid fusion (other)
chain: MAMEDDEDMWANTSSPSASPPRPRGFISTALSLNSTHLQGLLPSSFVDAAASPCHASGNNNGGGDGRNAAPMSSIFFASASYHQQQHHLPAPAPLDGAILPARRFGLDMCAAAAAAPAGVPAAGDRRKRRMIKNRESAARSRARKQARVNNLETEVEQLKQENKMLRVKYEQLRKTVEVPVPVRRTLQRVLSAPF
notes: not shown: two-hybrid fusion partner encoded by pBTM116-GW or pVP16-GW
[2]
  binding result: binds
[3]
  binding result: binds
[4]
  binding result: binds
[5]
  binding result: binds
[6]
  binding result: binds
[7]
  binding result: binds
[8]
  binding result: binds

B2: OsFD1, full-length, Vn- or Vc-tagged (BiFC) (other)
chain: MAMEDDEDMWANTSSPSASPPRPRGFISTALSLNSTHLQGLLPSSFVDAAASPCHASGNNNGGGDGRNAAPMSSIFFASASYHQQQHHLPAPAPLDGAILPARRFGLDMCAAAAAAPAGVPAAGDRRKRRMIKNRESAARSRARKQARVNNLETEVEQLKQENKMLRVKYEQLRKTVEVPVPVRRTLQRVLSAPF
notes: it is put first only for listing; not shown: Vn or Vc fragment of Venus (BiFC tag), at the N- or C-terminal
[9]
  binding result: binds
[10]
  binding result: binds

B3: OsFD1 having a mutation of S192E in a region of positions 147 to 195 in SEQ ID NO: 3, not fused with GST (other)
chain: ARVNNLETEVEQLKQENKMLRVKYEQLRKTVEVPVPVRRTLQRVLEAPF
[11]
  binding result: no binding

B4: OsFD1 polypeptide, residues 187 to 195, chemically synthesized (peptide)
peptide: LQRVL[pS]APF
notes: Soaked at 2 mM into Hd3a-GF14c crystals
[12]
  binding result: binds

— patent publication US20130019345A1 (NATIONAL UNIVERSITY CORPORATION NARA INSTITUTE OF SCIENCE …, published 2013)
